Consider 29 sequences from the supplement of paper PMC9170038.

The test system of the data set is MS2 coat protein. The data set can be described thus: apparent KD of MS2 coat protein; higher = weaker reporter binding. The conditions noted are these: Eterna round: R107. The gist of the method:
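Apparent KD per design is the median of normalised cluster binding-curve fits. Designed RNA switches transcribed on-chip from Illumina sequencing clusters were titrated with SNAP-549-labelled MS2 coat protein in twofold steps from 0.7 or 1.5 nM to 3 µM, with 0.8–1.5 h down to 10–20 min per step. Buffer: 100 mM Tris-HCl pH 7.5, 80 mM KCl, 4 mM MgCl2, without or with constant ligand.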

Where [1] appears, read: input ligand: theophylline 20 uM.
Setting [2] is: input ligand: tryptophan 2.4 mM.
Where [3] appears, read: input ligand: theophylline 2 mM.

Regarding “UGACAUUGCUCAGAUACCAGACAUGAGGAUCACCCAUGUGCCAACGUACAAAUAAUAAAUGUCCCUUGGCAGCUGAGCAAUGUCU [TheoBX 15 #MS2Left #Theo2]”, the “apparent KD of MS2 coat protein” value (input ligand: arginine 13.2 mM) came out at 16.2 nM, the “apparent KD of MS2 coat protein” value under setting [1] is 19.9 nM and the “apparent KD of MS2 coat protein” value under setting [2] came out at 11.4 nM.
For the sequence “UGACGAUACCUGGAUACCAGCGACAUGAGGAUCACCCAUGUAUGAGGAUCAGCCAUGUUAUGCCCUUGGCAGCCACGAAGGUCUU [CSCMULLIN]”, the “apparent KD of MS2 coat protein” value (input ligand: arginine 13.2 mM) worked out at 28.9 nM, the “apparent KD of MS2 coat protein” value under setting [1] is 55.4 nM and the “apparent KD of MS2 coat protein” value under setting [2] stood at 33.1 nM.
Turning to “UGAUUGAACGGAAGGAGCGUGAAGAGAGAGAAACAUGAGGAUCACCCAUGUAGAGAGAGAUCACAGGUAGGUCGCCGAGAGAUUG [11.C]”, the “apparent KD of MS2 coat protein” value by setting is: (input ligand: arginine 13.2 mM) 17.8 nM; (input ligand: none) 15 nM; under setting [1], 20.8 nM; under setting [3], 21 nM; under setting [2], 17.1 nM.
Consider “UGCAUCAUAAUCAUGUUGGUGCUAGGUGAUACCAGCAUCGAAAGAUGCCCUUGGCAGCACCAACAUGAGGAUCACCCAUGUAAUA [(MT)''-(M)'-(T')-(Theo)-(Ms2)_Design1/22_2]”, for which the “apparent KD of MS2 coat protein” value stood at 69.2 nM (input ligand: arginine 13.2 mM), 165 nM under setting [1] and 27 nM under setting [2].
Turning to “UGCGUACAUGAGGAUCACCCAUGUACUGAAGGAGCGGGAGGCAUCUCAGGUAGGUCGCAGACAUGAGGAUCACCCAUGUAGUGGU [Exclusion Arginine A GF 18]”, the “apparent KD of MS2 coat protein” value is, setting by setting: (input ligand: arginine 13.2 mM) 16.1 nM; (input ligand: none) 26.9 nM; under setting [1], 44.6 nM; under setting [3], 38.3 nM; under setting [2], 26.6 nM.
The corresponding values for “UGGGUAGCAUAGCUUGAUAGCUACACUGAAGGAGCGAGGAUAACCUCAGGUAGGUCGCAGACAUGAGGAUCACCCAUGUAGAUGG [Same State Arginine A GF18]” are 63.9 nM, 186 nM, 359 nM, 231 nM and 276 nM.
“UGUAACAUGAGGAUCACCCAUGUGAGUGAUACCAGAUUAGUAGUAGUCCCUUGGCAGCAUAUUGGGCGAGUGUAUAGUCUAUGCG [Same State - Theophylline A (Freestyle 10)]”: the “apparent KD of MS2 coat protein” value came to 94 nM (input ligand: arginine 13.2 mM), 250 nM under setting [1] and 205 nM under setting [2].
Take “UGUAUGGACUGAAGGAGCGCCUCAAAUAACAUGAGGAUCACCCAUGUGGACAAAGUCCUUGGGCAGGUAGGUCGCAGUCCAUACU [ArgBX 5 #StaticStem #MS2Late]”: the “apparent KD of MS2 coat protein” value came to 49.1 nM (input ligand: arginine 13.2 mM); 72.4 nM (input ligand: none); 82.9 nM under setting [1]; 92.3 nM under setting [3]; 82.2 nM under setting [2].
In the case of “UGUAUGGACUGAAGGAGCGGAAAAUAACCAUGAGGAUCACCCAUGGAAUAGGCGAAAGCCAUCCAGGUAGGUCGCAGUCCAUACU”, the “apparent KD of MS2 coat protein” value reads like this: (input ligand: arginine 13.2 mM) 23.4 nM; (input ligand: none) 31.6 nM; under setting [1], 32.4 nM; under setting [3], 36.6 nM; under setting [2], 31.6 nM.
Consider “UGUAUGGACUGAAGGAGCGGGUUGAUAAUCUGAGGAUCACCCAGGUAAAAGGCGAAAGCCACCCAGGUAGGUCGCAGUCCAUACU”, for which the “apparent KD of MS2 coat protein” value came out at 23.8 nM (input ligand: arginine 13.2 mM); 34 nM (input ligand: none); 38.9 nM under setting [1]; 41.8 nM under setting [3]; 36.4 nM under setting [2].
Regarding “UGUAUGUGAUCUGAUACCAGAGUGAAUAACCUGAGGAUCACCCUGGUAAGGCGAAAGCCACUCCCUUGGCAGCAGAUCGCAUACU”, the “apparent KD of MS2 coat protein” value (input ligand: arginine 13.2 mM) was determined as 121 nM; the “apparent KD of MS2 coat protein” value (input ligand: none) is 136 nM; the “apparent KD of MS2 coat protein” value under setting [1] stood at 100 nM; the “apparent KD of MS2 coat protein” value under setting [3] amounted to 26.6 nM; the “apparent KD of MS2 coat protein” value under setting [2] is 136 nM.
Regarding “UGUAUGUGAUCUGAUACCAGUCCAACUGGUAAAACCUGAGGAUCACCCGGGUAAAAUUGGGACCCUUGGCAGCAGAUCGCAUACU”, the “apparent KD of MS2 coat protein” value by setting is: (input ligand: arginine 13.2 mM) 201 nM; (input ligand: none) 475 nM; under setting [1], 285 nM; under setting [3], 26 nM; under setting [2], 683 nM.
For the sequence “UGUCAUGGAAACAUGACAGGUUCUACCGGUCGAGGACCGGUACGGCCGCCACUCGAUUGGUGGCACAUGAGGAUCACCCAUGUUA [SS Tryp A #15]”, the “apparent KD of MS2 coat protein” value stood at 24.1 nM (input ligand: arginine 13.2 mM), 39.6 nM under setting [1] and 30.3 nM under setting [3].
Consider “UGUUAUUUCCGAAGGAGCGGGAUACAUGAGGAUCACCCAUGUACAUGAGGAUCAACAUGAACCCAGGUAGGUCGCGGAUUUUGUC [Exclusion Arginine B 3]”, for which the “apparent KD of MS2 coat protein” value is, setting by setting: (input ligand: arginine 13.2 mM) 34.1 nM; (input ligand: none) 405 nM; under setting [1], 300 nM; under setting [3], 379 nM; under setting [2], 228 nM.
In the case of “UGUUUGGUGCGCGAGUGUUGGAUGAUUGAUACCAGUGAAGAAGAGCGCCCUUGGCAGCGAAUCCUAACAUGAGGAUCACCCAUGU [5.V]”, the “apparent KD of MS2 coat protein” value reads like this: (input ligand: arginine 13.2 mM) 39.3 nM; under setting [1], 57.7 nM; under setting [2], 51.4 nM.
Turning to “UUAAUCAUGGAUGAAAACAUUUAUGCAGAAGGAGCGUGAUAAAACACAGGUAGGUCGCUGAAGGGAACAUGAGGAUCACCCAUGU [AstrosSSArgA#17]”, the “apparent KD of MS2 coat protein” value reads like this: (input ligand: arginine 13.2 mM) 35.9 nM; (input ligand: none) 65.1 nM; under setting [1], 74.5 nM; under setting [3], 69.5 nM; under setting [2], 41.3 nM.
As for “UUAGCACAUGAGGAUCACCCAUGUCUCGAUACCAGAUAAGUUCCGAUCCCUUGGCAGCGACAAGCUUGCAAACUGCGACUAUUCU [theeternabot_sameState_MS2_Theo_A_42]”, the “apparent KD of MS2 coat protein” value (input ligand: arginine 13.2 mM) was 22.2 nM, the “apparent KD of MS2 coat protein” value under setting [1] stood at 32.2 nM and the “apparent KD of MS2 coat protein” value under setting [2] came to 24.8 nM.
In the case of “UUAGUAACGACGGCCGCCACUGGAUAUGAACAUGAGGAUCACCCAUGUAGAGAUCCUAGAAUAAACAGGACCGGGUCUGAUAAUA [Exclusion Tryptophane B GF 2]”, the “apparent KD of MS2 coat protein” value runs as follows: (input ligand: arginine 13.2 mM) 17.9 nM; under setting [1], 21.6 nM; under setting [3], 17.3 nM.
As for “UUAUAAGUACCGGUCCUCAGAUCCUCAUGACGAGGACCGGUACGGCCGCCACUCGAAACAUGAGGAUCACCCAUGUAAUAAUAUU [Brourdmod07]”, the “apparent KD of MS2 coat protein” value reads like this: (input ligand: arginine 13.2 mM) 16 nM; under setting [1], 25.3 nM; under setting [3], 23.3 nM.
On to “UUAUUUAUAAUGGAUACCAGUAUAAUGGCCGCAAAUCCUGACAUGAGGAUCACCCAUGUAUGCCCUUGGCAGCUGUUAUGGGUUU [XTheo B #23]”, for which the “apparent KD of MS2 coat protein” value reads like this: (input ligand: arginine 13.2 mM) 34.7 nM; under setting [1], 51.2 nM; under setting [2], 38.7 nM.
For the sequence “UUCAGCUAGUCGGCCGCCACUACAUGAGGAUCACCCAUGUAGGUCCACACUGCUUCGGCAGUGAGUAGGACCGGGACUAGCUGAG”, the “apparent KD of MS2 coat protein” value is, setting by setting: (input ligand: arginine 13.2 mM) 7.07 nM; (input ligand: none) 9.66 nM; under setting [1], 15.2 nM; under setting [3], 10.5 nM; under setting [2], 15.4 nM.
On to “UUCAGCUAGUCGGCCGCCACUACUUGAGGAUCACCCAAGUAAUCCUAACACUGCUUCGGCAGUGGUAGGACCGGGACUAGCUGAG”, for which the “apparent KD of MS2 coat protein” value reads like this: (input ligand: arginine 13.2 mM) 8.78 nM; (input ligand: none) 10.9 nM; under setting [1], 12 nM; under setting [3], 11.5 nM; under setting [2], 15.1 nM.
With “UUCUUUAAGUCGGCCGCCACUGAAACAUGAGGAUCACCCAUGUAUAUUUGUGUAAAGGUGGAUUACAGGACCGGGACUAUAGUAA [JR_Nu23_ExcTryptoB_Sub024]”, the “apparent KD of MS2 coat protein” value turned out to be 12.1 nM (input ligand: arginine 13.2 mM), 13.6 nM under setting [1] and 11.7 nM under setting [3].
Take “UUGUGGCGCUCGGCCGCCACUCCGACAUGAGGAUCACCCAUGUUCUACAUGAGGAUCACCCAUGUGAGGACCGGGAGACACAACC [Exclusion Tryptophan B GF12]”: the “apparent KD of MS2 coat protein” value runs as follows: (input ligand: arginine 13.2 mM) 137 nM; (input ligand: none) 126 nM; under setting [1], 102 nM; under setting [3], 134 nM; under setting [2], 165 nM.
As for “UUGUUGUUUGGAAGGAGCGUGUAUGAUUAAGAACAUGAGGAUCACCCAUGUUGUAGGAUAGCACAGGUAGGUCGCCGGGUGGUGG [11.W]”, the “apparent KD of MS2 coat protein” value amounted to 18.8 nM (input ligand: arginine 13.2 mM); 14.8 nM (input ligand: none); 22.5 nM under setting [1]; 23.5 nM under setting [3]; 14.6 nM under setting [2].
Take “UUGUUGUUUGGAAGGAGCGUGUAUGAUUAAGAACAUGAGGAUCACCCAUGUUGUAGGGUAGCACAGGUAGGUCGCCGGGUGGUGG [11.V]”: the “apparent KD of MS2 coat protein” value is, setting by setting: (input ligand: arginine 13.2 mM) 34.8 nM; (input ligand: none) 25.1 nM; under setting [1], 36.8 nM; under setting [3], 31.2 nM; under setting [2], 21.1 nM.
On to “UUUAAAAUAACAGAUACCAGCGUGUUAUAAAACAUGAGGAUCACCCAUGUAGUGAUCAAGCGCCCUUGGCAGCUGGUAUUUUAGG [7.E]”, for which the “apparent KD of MS2 coat protein” value by setting is: (input ligand: arginine 13.2 mM) 186 nM; under setting [1], 161 nM; under setting [2], 132 nM.
For the sequence “UUUACAUGAGGAUCACCCAUGUGCCAUGAUACCAGACAUGAAAAUGUCCCUUGGCAGCAUGAAAGAUCCACGUCGGAAACGACGG [Krpole]”, the “apparent KD of MS2 coat protein” value runs as follows: (input ligand: arginine 13.2 mM) 72.2 nM; under setting [1], 248 nM; under setting [2], 113 nM.
Take “UUUGAGAUAACAGAUACCAGCGUGUUAUAAAACAUGAGGAUCACCCAUGUAGUGAUCAAGCGCCCUUGGCAGCUGGUGUUUUAGG [7.H]”: the “apparent KD of MS2 coat protein” value by setting is: (input ligand: arginine 13.2 mM) 21.1 nM; (input ligand: none) 102 nM; under setting [1], 383 nM; under setting [3], 469 nM; under setting [2], 141 nM.
